The data set has as its target T1, Ets-1 ΔN331 (UniProt P27577 331-440).
T1 sequence: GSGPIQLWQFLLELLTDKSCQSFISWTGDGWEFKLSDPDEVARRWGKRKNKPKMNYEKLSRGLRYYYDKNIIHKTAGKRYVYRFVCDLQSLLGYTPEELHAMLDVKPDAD
The data set is described as follows: EMSA. (In general: In EMSA bound probe runs differently from free probe, usually more slowly.)

B1: high affinity ETS binding site 27-mer duplex (dsDNA)
DNA 1: TCGACGGCCAAGCCGGAAGTGAGTGCC
DNA 2: TCGAGGCACTCACTTCCGGCTTGGCCG
B1: the binding result is “binds”.

The record behind these values is article PMC4808631.
